Measured values: the supplement of paper PMC10567573

B1: HDAC6 (parent)
chain: KMKTRELHRESSNFDSIYICPSTF

Variants of: B1
Assay: protein stability index of a GFP-peptide fusion (GPS, HEK-293T) (PSI 1-6); higher = more stable
Conditions: c terminus: a fixed tail appended
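Also: lentivirally expressed fusions sorted by FACS into six bins by GFP to DsRed ratio, PSI derived from sequencing read proportions per bin multiplied by bin number.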

Variant	protein stability index
KMKTRELVRESSNFDSIYICPSTF [H8V]	2.6
KMKTRELPRESSNFDSIYICPSTF [H8P]	2.56
KMKTRELKRESSNFDSIYICPSTF [H8K]	2.5
KMKTRELFRESSNFDSIYICPSTF [H8F]	1.69
KMKTRELWRESSNFDSIYICPSTF [H8W]	1.83
KMKTRELSRESSNFDSIYICPSTF [H8S]	2.92
KMKTRELMRESSNFDSIYICPSTF [H8M]	1.97
KMKTRELQRESSNFDSIYICPSTF [H8Q]	2.92
KMKTRELLRESSNFDSIYICPSTF [H8L]	1.97
KMKTRELCRESSNFDSIYICPSTF [H8C]	1.6
KMKTRELTRESSNFDSIYICPSTF [H8T]	2.21
KMKTRELARESSNFDSIYICPSTF [H8A]	1.98
KMKTRELRRESSNFDSIYICPSTF [H8R]	2.22
KMKTRELIRESSNFDSIYICPSTF [H8I]	1.38
KMKTRELGRESSNFDSIYICPSTF [H8G]	2.15
KMKTRELDRESSNFDSIYICPSTF [H8D]	2.22
KMKTRELYRESSNFDSIYICPSTF [H8Y]	1.56
KMKTRELNRESSNFDSIYICPSTF [H8N]	2.07
KMKTRELERESSNFDSIYICPSTF [H8E]	2.32
KMKTRELHREWSNFDSIYICPSTF [S11W]	2.85
KMKTRELHREFSNFDSIYICPSTF [S11F]	1.71
KMKTRELHREISNFDSIYICPSTF [S11I]	2.71
KMKTRELHREQSNFDSIYICPSTF [S11Q]	2.36
KMKTRELHREDSNFDSIYICPSTF [S11D]	2.54

Variant	protein stability index
KMKTRELHREMSNFDSIYICPSTF [S11M]	1.61
KMKTRELHREHSNFDSIYICPSTF [S11H]	3.04
KMKTRELHRETSNFDSIYICPSTF [S11T]	2.41
KMKTRELHREVSNFDSIYICPSTF [S11V]	2.3
KMKTRELHRENSNFDSIYICPSTF [S11N]	2.3
KMKTRELHREKSNFDSIYICPSTF [S11K]	2.72
KMKTRELHREESNFDSIYICPSTF [S11E]	2.2
KMKTRELHREPSNFDSIYICPSTF [S11P]	2.13
KMKTRELHREYSNFDSIYICPSTF [S11Y]	1.98
KMKTRELHRECSNFDSIYICPSTF [S11C]	1.75
KMKTRELHRERSNFDSIYICPSTF [S11R]	1.71
KMKTRELHRELSNFDSIYICPSTF [S11L]	1.66
KMKTRELHREGSNFDSIYICPSTF [S11G]	1.96
KMKTRELHREASNFDSIYICPSTF [S11A]	1.87
KMKTRKLHRESSNFDSIYICPSTF [E6K]	2
KMKTRALHRESSNFDSIYICPSTF [E6A]	1.99
KMKTRSLHRESSNFDSIYICPSTF [E6S]	2.2
KMKTRYLHRESSNFDSIYICPSTF [E6Y]	1.72
KMKTRVLHRESSNFDSIYICPSTF [E6V]	2.23
KMKTRLLHRESSNFDSIYICPSTF [E6L]	1.44
KMKTRFLHRESSNFDSIYICPSTF [E6F]	1.86
KMKTRCLHRESSNFDSIYICPSTF [E6C]	1.31
KMKTRGLHRESSNFDSIYICPSTF [E6G]	1.57
KMKTRDLHRESSNFDSIYICPSTF [E6D]	2.85

Variant	protein stability index
KMKTRQLHRESSNFDSIYICPSTF [E6Q]	2.66
KMKTRMLHRESSNFDSIYICPSTF [E6M]	1.6
KMKTRRLHRESSNFDSIYICPSTF [E6R]	1.92
KMKTRPLHRESSNFDSIYICPSTF [E6P]	1.66
KMKTRNLHRESSNFDSIYICPSTF [E6N]	2.32
KMKTRTLHRESSNFDSIYICPSTF [E6T]	3.12
KMKTRWLHRESSNFDSIYICPSTF [E6W]	1.76
KMKTRHLHRESSNFDSIYICPSTF [E6H]	1.96
KMKTRILHRESSNFDSIYICPSTF [E6I]	1.83
KMYTRELHRESSNFDSIYICPSTF [K3Y]	2.06
KMVTRELHRESSNFDSIYICPSTF [K3V]	2.3
KMQTRELHRESSNFDSIYICPSTF [K3Q]	2.38
KMPTRELHRESSNFDSIYICPSTF [K3P]	2.15
KMWTRELHRESSNFDSIYICPSTF [K3W]	2.14
KMSTRELHRESSNFDSIYICPSTF [K3S]	2.81
KMTTRELHRESSNFDSIYICPSTF [K3T]	2.2
KMRTRELHRESSNFDSIYICPSTF [K3R]	2.42
KMKTRELHRFSSNFDSIYICPSTF [E10F]	2.26
KMKTRELHRGSSNFDSIYICPSTF [E10G]	3.45
KMKTRELHRTSSNFDSIYICPSTF [E10T]	2.83
KMKTRELHRDSSNFDSIYICPSTF [E10D]	2.03
KMKTRELHRPSSNFDSIYICPSTF [E10P]	1.82
KMKTRELHRQSSNFDSIYICPSTF [E10Q]	1.78
KMKTRELHRRSSNFDSIYICPSTF [E10R]	2.1

Variant	protein stability index
KMKTRELHRKSSNFDSIYICPSTF [E10K]	2.71
KMKTRELHRMSSNFDSIYICPSTF [E10M]	2.62
KMKTRELHRNSSNFDSIYICPSTF [E10N]	2.98
KMKTRELHRVSSNFDSIYICPSTF [E10V]	2.04
KMKTRELHRCSSNFDSIYICPSTF [E10C]	2.18
KMKTRELHRWSSNFDSIYICPSTF [E10W]	1.22
KMKTRELHRYSSNFDSIYICPSTF [E10Y]	1.56
KMKTRELHRHSSNFDSIYICPSTF [E10H]	1.87
KMKTRELHRASSNFDSIYICPSTF [E10A]	2.51
KMKTRELHRISSNFDSIYICPSTF [E10I]	1.85
KMKTRELHRLSSNFDSIYICPSTF [E10L]	2.15
KMKTRELHRSSSNFDSIYICPSTF [E10S]	1.79
KMKFRELHRESSNFDSIYICPSTF [T4F]	2.11
KMKCRELHRESSNFDSIYICPSTF [T4C]	1.34
KMKWRELHRESSNFDSIYICPSTF [T4W]	2.19
KMKIRELHRESSNFDSIYICPSTF [T4I]	1.85
KMKYRELHRESSNFDSIYICPSTF [T4Y]	2
KMKERELHRESSNFDSIYICPSTF [T4E]	1.99
KMKRRELHRESSNFDSIYICPSTF [T4R]	2.41
KMKMRELHRESSNFDSIYICPSTF [T4M]	1.65
KMKNRELHRESSNFDSIYICPSTF [T4N]	2.03
KMKPRELHRESSNFDSIYICPSTF [T4P]	2.05
